{
  "source": "patent US12098378B2",
  "about": "“Anti-fungal polypeptides” (priority 2020, dated 2024)",
  "key": {"[1]": {"system": "Botrytis cinerea R16", "assay": "Prolonged incubation antifungal assay followed over 14 days", "type": "cell-based", "conditions": "followed over a period of 14 days (FIG. 9)", "experimental": "Two-fold dilutions of purified VHH 10G11Q were prepared in 96-well microtiter plates. To 20 μl of these dilutions and to 20 μl of water as a control, 80 μl of fungal spore suspension (1 E+05 spores/ml in half strength potato dextrose broth (PDB)) were added, starting with a final VHH 10G11Q concentration of 10 μM. […] All tests were performed in at least 2 replicates."}, "[2]": {"system": "Phakopsora pachyrhizi", "assay": "Control of soybean rust on soybeans in glasshouse", "type": "in vivo", "experimental": "Four replicates of pot-grown soybean plants (4 plants/pot) were sprayed with 125 ml aqueous suspension, containing a concentration of active ingredient of as described in Table 1. Two applications were done spaced 14 days apart. Plants were inoculated once with Phakopsora pachyrhizi two days after the first application (application A) of active ingredient. The growth inhibitory characteristics of 10G11Q were compared to those of a non-antifungal reference VHH molecule, a non-treated control and the systemic chemical Quadris Top SBX (azoxystrobin, difeconazole).\nDisease severity is recorded as percent severity on a scale of 0-100%. Recording started when first symptoms appear followed by weekly assessment at least till 3 weeks after the second application (application B) of the active ingredient. Percent severity ratings are separated based on the position on the plant: Percent severity low canopy, Percent severity mid canopy and Percent severity upper canopy to track the progress of the disease well and following the natural development of the disease in nature.\nTime indications in the graphs on the x-axis concern the time of recording of disease severity or incidence. These are relative and are indicated by the number of days after application when recording occurred. For example, a recording 13 Days After the second application (application B) will be represented as 13DAB. This code is applicable for FIG. 15 to FIG. 28."}, "[3]": {"system": "Podosphaera xanthii", "assay": "Control of powdery mildew on cucumber in greenhouse", "type": "in vivo", "experimental": "Four replicates of 10 plants per plot of cucumber plants (4 m^2 per plot) were treated with a spray volume between 1000 and 18751/ha depending on the crop height. The spray mix contained a concentration of active ingredient as described in Table 8. Eight applications were performed spaced 7 days apart. No artificial infection was performed and first spray was placed at the onset of flowering. The efficacy of 10G11 was compared to that of a non-treated control, a chemical reference Topaz (Penconazole), a biological reference Sonata (Bacillus pumilis strain QST 2808) in combination with the adjuvant Elasto G5 and a chemical rotation of Takumi (Cyflufenamid), Flint (Trifloxystrobin) and Topaz.\nEfficacy assessments were performed on 40 leaves per plot, assessing the percentage of leaf area affected (PESSEV). Assessments were performed on a weekly basis and continued until two weeks after the last application."}, "[4]": {"system": "Oidium neolycopersici", "assay": "Control of powdery mildew on tomato", "type": "in vivo", "conditions": "250, 500, 750 g ai/ha, 5 applications, until one week after the last application", "experimental": "Four replicates of 15 tomato plants (9.9 m^2 per plot) were treated with […] of spray solution, corresponding with a spray volume of […], according to local practice. The spray mix contained a concentration of active ingredient as described in Table 5. Five applications were performed spaced 7 days apart. No artificial infection was performed and first spray was placed when first symptoms were observed. The efficacy of 10G11 was compared to that of a non-treated control and the chemical reference Topas (Penconazole). In addition, a chemical rotation of Systhane Forte (Myclobutanil), Ortiva (Azoxystrobin), Signum (Boscalid. Pyraclostrobin) and Topas was evaluated. A seventh treatment replaced part of the chemicals in this chemical rotation by 10G11 as described in Table 5.\nThe percentage of leaf area affected by the disease (disease severity) was recorded in 10 randomly selected leaves per plot. Percentage incidence (PESINC; % of affected leaves), was calculated based on these values. Assessments were performed on a weekly basis and continued until 1 week after the last application."}, "[5]": {"system": "Fraction 3", "assay": "Bio-layer interferometry (BLI) binding", "set-up": "species or system Botrytis cinerea", "conditions": "compared to a reference VHH (FIG. 12)", "from_the_text": "10G11 binding to Fraction 3 was further confirmed by bio-layer interferometry (BLI). BLI is a label-free optical analytical technique for measuring biomolecular interactions (Kamat et al, 2017. Analytical biochemistry 536: 16-31; Wallner et al. 2013. Journal of Pharmaceutical and Biomedical Analysis 72: 150-154)."}, "[6]": {"system": "liposomes from Fraction 4, the non-polar phospholipids (PLs), of Botrytis cinerea lipid extract", "assay": "Interaction with DPH-containing liposomes (fluorescence)", "type": "binding", "conditions": "Fraction 4 liposomes (FIG. 11)", "experimental": "(§1) In order to investigate the putative interaction partner of 10G11 and its variants, lipids were extracted from Botrytis cinerea hyphae as described in Example 1. For the further fractionation of the total lipid extract thin-layer chromatography was used (TLC; Skipski et al (1965), Biochimica et Biophysica Acta, 106(2): 386-396). The extract was spotted on a silica gel glass plate and run in a chromatography tank filled with 100 mL of the chloroform/methanol mixture (85/15, v/v). Lipid bands separated by TLC were stained with alpha-naphthol enabling visual detection of lipids. Four fractions were identified (FIG. 10): Fraction 1, the fraction of polar lipids; Fraction 2, with a Retention Factor (Rf) similar to the glucosylceramide reference standard (GlcCer from Tamogitake), likely to be ceramides; Fraction 3, with a slightly higher Rf than the reference standard; and Fraction 4, the non-polar phospholipids (PLs). For obtaining sufficient material from the separate Fractions, normal-phase flash chromatography can be used (Gorden, M. H. (2015). Encyclopedia of Analytical Science (Second edition), Elsevier). The TLE was therefore dissolved in CH2Cl2 by addition of a few drops of MeOH and loaded onto a 4 g normal phase flash cartridge with 15 μm particles. The column was run with CH2Cl2/MeOH (85/15, v/v) as the eluent. Finally, Fractions were filtered through a 0.45 μm syringe filter (nylon membrane), and dried. Hereafter, liposomes from the true lipid extract and its individual fractions were prepared via the thin-film hydration method with the addition of 1,6-diphenyl-1,3,5-hexatriene (DPH) (Trucillo et al, 2020. Processes 8(9):1022; Zhang, 2017. Liposomes 1522:1 7-22). […] Any disruption of the lipid membranes would lead to a decrease in fluorescent signal. Hereafter, the interaction of 10G11 with these liposomes was tested."}, "[7]": {"system": "liposomes from Fraction 3 of Botrytis cinerea lipid extract", "assay": "Interaction with DPH-containing liposomes (fluorescence)", "type": "binding", "conditions": "Fraction 3 liposomes (FIG. 11)", "experimental": "as §1"}, "[8]": {"system": "liposomes from total lipid extract (TLE) of Botrytis cinerea hyphae", "assay": "Interaction with DPH-containing liposomes (fluorescence)", "type": "binding", "experimental": "as §1"}},
  "data": [
    {"molecule": "10G11: VHH polypeptide, SEQ ID NO: 2, begins with a D residue (protein) VHH: DVQLVESGGGLVQAGGSLRLSCAASRSIFSINAMDWYRQAPGKQREWVAGITRGGTTKYADSVKGRFTISRDNAKKKVYLQMNSLKPEDTAVYYCNVLRGEQPWTRDYWGQGTQVTVSS", "values": [
      {"measurement": "effect on preventing spore outgrowth", "setting": "[1]", "value": "allowed spore outgrowth to partly reinitiate after 3 days"},
      {"measurement": "percent severity of Asian soybean rust, lower canopy", "setting": "[2]; 250, 500, 750 g ai/ha, 2 applications, until 3 weeks after the second application, vs reference VHH and non-treated inoculated control (FIG. 15)", "value": "prominent and dose-related growth inhibition pattern"},
      {"measurement": "percent severity of Asian soybean rust, mid canopy", "setting": "[2]; 250, 500, 750 g ai/ha, 2 applications, until 3 weeks after the second application, vs reference VHH and non-treated inoculated control (FIG. 16)", "value": "prominent and dose-related growth inhibition pattern"},
      {"measurement": "percent severity of Asian soybean rust, upper canopy", "setting": "[2]; 250, 500, 750 g ai/ha, 2 applications, until 3 weeks after the second application, vs reference VHH and non-treated inoculated control (FIG. 17)", "value": "prominent and dose-related growth inhibition pattern"},
      {"measurement": "activity compared with chemical reference Quadris Top SBX", "setting": "[2]; 750 g ai/ha", "value": "on par"},
      {"measurement": "severity (PESSEV) of powdery mildew on cucumber", "setting": "[3]; 125, 250, 500 g ai/ha LWA, until 1 week after the seventh application (FIG. 28)", "value": "clear and dose-related performance"},
      {"measurement": "severity (PESSEV) of powdery mildew on cucumber", "setting": "[3]; from the eighth application, very severe disease pressure (FIG. 28)", "value": "Performance decreased"},
      {"measurement": "severity of powdery mildew on tomato (percentage of leaf area affected)", "setting": "[4]; mild disease pressure (FIG. 22)", "value": "clear and dose-related performance"},
      {"measurement": "incidence (PESINC) of powdery mildew on tomato", "setting": "[4]; mild disease pressure (FIG. 23)", "value": "clear and dose-related performance"},
      {"measurement": "binding to Fraction 3 by BLI", "setting": "[5]", "value": "confirmed binding"},
      {"measurement": "interaction with lipids in liposomes (DPH fluorescence)", "setting": "[6]", "value": "interacts"},
      {"measurement": "interaction with lipids in liposomes (DPH fluorescence)", "setting": "[7]", "value": "interacts"},
      {"measurement": "membrane disruption of liposome vesicles", "setting": "[8]; stated generally for the liposomes with which 10G11 interacts (FIG. 11)", "value": "breakage of the vesicles"},
      {"measurement": "interaction with lipids in liposomes (DPH fluorescence)", "setting": "[8]; total lipid extract (TLE) liposomes (FIG. 11)", "value": "interacts"}
    ]}
  ]
}
